Test results as given in doi:10.1101/2024.11.11.622897.

Biological target: T1, DdaA (A. baumannii), AbDdaA (Acinetobacter baumannii ATCC 17978, UniProt V5VBS3 1-335)
T1 sequence: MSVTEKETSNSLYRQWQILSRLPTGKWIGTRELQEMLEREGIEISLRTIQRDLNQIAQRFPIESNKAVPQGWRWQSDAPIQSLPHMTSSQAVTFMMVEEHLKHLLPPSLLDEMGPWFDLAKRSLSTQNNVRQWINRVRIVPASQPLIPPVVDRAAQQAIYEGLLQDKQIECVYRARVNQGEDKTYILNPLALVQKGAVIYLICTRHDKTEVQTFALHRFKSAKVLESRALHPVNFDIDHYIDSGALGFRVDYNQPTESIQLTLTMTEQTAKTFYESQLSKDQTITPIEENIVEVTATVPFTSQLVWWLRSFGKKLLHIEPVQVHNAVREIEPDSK
Experiment: EMSA

B1: recA promoter motif WT (AR-DDRM) (dsDNA)
DNA 1: TTTCCGGTCTGGGCGACACAATATGACGTGTAATTTTAACC
DNA 2: GGTTAAAATTACACGTCATATTGTGTCGCCCAGACCGGAAA
binding result: binds
